Test results published in article PMC4005679, “In vitro assembly and activity of an archaeal CRISPR-Cas type I-A Cascade interference complex” (Nucleic Acids Research, 2014).

What was measured:
[1] = target: T1, Csa5;Cas7;Cas5a;Cas3';Cas3'';Cas8a2 (Thermoproteus tenax Kra1;Thermoproteus …, UniProt G4RJZ0;G4RJZ1;G4RJZ2;G4RJZ3;G4RJZ4;G4RJZ5 1-130;1-329;1-226;1-566;1-226;1-361, |||||); experiment: EMSA; yeast RNA competitor; Ca2+ during reconstitution; 0.125-5 uM Cascade; affinity similar to crRNA 5.13; 100 mM HEPES/KOH pH 7, 100 mM NaCl, 10 mM beta-mercaptoethanol, 50 ng yeast RNA, 30 min at 70 C (Cascade; 6% native TBE-PAGE); Cas7 alone without yeast RNA at 80 C, agarose gel; 2-4 nM labeled crRNA; settings: protein: recombinant;recombinant;recombinant;recombinant;recombinant;recombinant; tags: untagged;His-SUMO tag cleaved off;;;;; label: 5'-32P (EMSA); unlabeled in SEC; single strand
[2] = target: T1, Csa5;Cas7;Cas5a;Cas3';Cas3'';Cas8a2; experiment: EMSA; yeast RNA competitor; Ca2+ during reconstitution; 0.125-2 uM Cascade; 100 mM HEPES/KOH pH 7, 100 mM NaCl, 10 mM beta-mercaptoethanol, 50 ng yeast RNA, 30 min at 70 C (Cascade; 6% native TBE-PAGE); Cas7 alone without yeast RNA at 80 C, agarose gel; 2-4 nM labeled crRNA; settings: protein: recombinant;recombinant;recombinant;recombinant;recombinant;recombinant; tags: untagged;His-SUMO tag cleaved off;;;;; label: 5'-32P; single strand

Binder | binding result [1] | binding result [2]
AUUGAAAGCGUUGAUGCGGCCGCGACUGGCUGACUCAGCUAUUACGUUGA (ssRNA, 5'-OH from hammerhead cleavage before labeling) [crRNA 5.2] | binds | –
crRNA 5.13 (ssRNA, 5'-OH from hammerhead cleavage before labeling) RNA: AUUGAAAGAUCGCUUGUCCAACCGGGCUCCUCUAUAUGUCGUCAUUAGCUUAGA | – | binds
